This passage reports dwell-time results from publication doi:10.1101/207886.

The assay addresses MBP-fused Cas3 (E. coli) (UniProt P38036). In words: single-molecule TIRF fluorescence.
UniProt P38036, sequence (P38036 whole entry, the tested form may be a part): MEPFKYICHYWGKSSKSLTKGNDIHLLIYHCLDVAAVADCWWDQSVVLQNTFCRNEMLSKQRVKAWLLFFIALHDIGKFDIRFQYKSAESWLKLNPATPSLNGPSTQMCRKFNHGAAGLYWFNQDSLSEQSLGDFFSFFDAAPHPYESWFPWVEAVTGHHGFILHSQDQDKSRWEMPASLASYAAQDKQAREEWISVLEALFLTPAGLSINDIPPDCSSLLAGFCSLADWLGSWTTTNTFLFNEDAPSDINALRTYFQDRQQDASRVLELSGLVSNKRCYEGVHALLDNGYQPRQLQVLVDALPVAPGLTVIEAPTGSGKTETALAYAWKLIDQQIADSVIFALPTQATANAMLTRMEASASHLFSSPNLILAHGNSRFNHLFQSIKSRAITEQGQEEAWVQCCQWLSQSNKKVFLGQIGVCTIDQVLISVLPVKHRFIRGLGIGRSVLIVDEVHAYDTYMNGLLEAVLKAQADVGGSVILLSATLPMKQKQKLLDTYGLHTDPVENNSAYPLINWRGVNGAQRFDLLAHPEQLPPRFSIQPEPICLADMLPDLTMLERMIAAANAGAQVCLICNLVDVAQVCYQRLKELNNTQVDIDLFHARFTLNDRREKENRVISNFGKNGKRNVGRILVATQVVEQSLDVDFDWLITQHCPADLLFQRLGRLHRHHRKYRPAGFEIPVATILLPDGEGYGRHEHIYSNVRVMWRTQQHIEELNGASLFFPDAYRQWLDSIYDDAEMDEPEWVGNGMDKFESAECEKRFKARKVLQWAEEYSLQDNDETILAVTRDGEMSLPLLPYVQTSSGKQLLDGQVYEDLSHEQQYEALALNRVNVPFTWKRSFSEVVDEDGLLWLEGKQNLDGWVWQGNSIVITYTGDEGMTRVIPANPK

With “Cascade complex (RNA-guided surveillance complex), bound to dye-labelled target DNA (from UniProt Q46901 1-502)”, the dwell-time amounted to 1.63 s.
